In article PMC2330189 (Acta Crystallographica Section F: Structural Biology and …, 2007):

Target: the molecule itself
Assay: SEC

B1: 1,3-propanediol dehydrogenase from Klebsiella pneumoniae (enzyme, UniProt Q59477 1-387, looked up)
chain: MSYRMFDYLVPNVNFFGPNAISVVGERCQLLGGKKALLVTDKGLRAIKDGAVDKTLHYLREAGIEVAIFDGVEPNPKDTNVRDGLAVFRREQCDIIVTVGGGSPHDCGKGIGIAATHEGDLYQYAGIETLTNPLPPIVAVNTTAGTASEVTRHCVLTNTETKVKFVIVSWRNLPSVSINDPLLMIGKPAALTAATGMDALTHAVEAYISKDANPVTDAAAMQAIRLIARNLRQAVALGSNLQARENMAYASLLAGMAFNNANLGYVHAMAHQLGGLYDMPHGVANAVLLPHVARYNLIANPEKFADIAELMGENITGLSTLDAAEKAIAAITRLSMDIGIPQHLRDLGVKEADFPYMAEMALKDGNAFSNPRKGNEQEIAAIFRQAF
stoichiometry N: 10
